The source of these data is US7910106B2, “Combinations of SAP depleting agents and anti-SAP antibodies” (Pentraxin Therapeutics Ltd., priority 2007, dated 2011).

In data set [1] the target is T1, SAP (Homo sapiens, UniProt P02743). Nature of the data set: Human SAP in serum and organ extracts by electroimmunoassay, AA amyloidotic human SAP transgenic mice (Example 1). Particulars: for Human SAP concentrations in serum [mean (SD)]: post CPHPC before antibody day 0, CPHPC 1 mg/ml in drinking water. The class given is in vivo, mouse. Also noted: from tissue; host or cells: serum, spleen and liver of C57BL/6 mice with the mouse SAP gene deleted and transgenic for human SAP. An excerpt:
In the present study AA amyloidosis was induced in mice by amyloid enhancing factor injection followed by repeated casein injections to elicit persistent acute inflammation and thus sufficiently sustained increase in SAA production to promote AA amyloid deposition in all animals. A unique strain of pure line C57BL/6 animals was used in which the mouse SAP gene has been deleted^13 and a human SAP transgene has been introduced^14, 15. […] We then treated three very closely matched groups as follows:
Systemic AA amyloidosis was induced in adult male (n=61) and female (n=32) pure line C57BL/6 mice with the mouse SAP gene deleted and which were transgenic for human SAP^15. Each mouse received a single dose of amyloid enhancing factor^9 by intravenous injection followed 4 days later by 10 daily subcutaneous injections of 10% w/v casein in solution in 0.1M NaHCO3 administered over a 12 day period^13. Seven days after the last casein injection, KI was introduced into the drinking water of all mice and 3 days later each mouse received an intravenous injection of a standard dose of ^125I-labelled human SAP^6,18. Four adult male and four female mice from the same colony but which had not received any other treatment were also given KI and ^125I-SAP as controls. All mice underwent whole body counting 24, 48, 72 96 and 168 h after the tracer injection to determine retention of radioactivity as an index of whole body amyloid load. […] The mice were then allocated to three closely matched groups with as close as possible to the same total numbers and sex distribution in each group. Ten days after the ^125I-SAP injection groups one and two were started on CPHPC in their drinking water at 1 mg/ml and continued on that treatment until the end of the experiment. Group three received no treatment at this or any later stage of the study. Five days after starting the CPHPC each animal in group one received an intraperitoneal injection comprising 1 ml of the whole IgG fraction of monospecific sheep anti-human SAP antiserum at 50 mg/ml containing 7 mg/ml of specific antibody in solution in phosphate buffered physiological saline. The antiserum was raised by immunisation of sheep with 100% pure human SAP. At the same time all animals in group 2 received an intraperitoneal injection comprising 1 ml of the whole IgG fraction of monospecific sheep anti-human oncostatin M receptor antiserum at 50 mg/ml in solution in phosphate buffered physiological saline. […] Twenty eight days after the intraperitoneal injections all mice were killed by bleeding out under terminal anaesthesia and the liver and spleen from each were removed. Each organ was weighed and then divided into three portions, one of which was also weighed and used for extraction of SAP, while the second portion was snap frozen for subsequent immunohistochemical and cytochemical analysis without fixation, and the last part was fixed in buffered formalin for routine histology and estimation of amyloid by Congo red staining^19. All mice were weighed at the time of assignment to the groups after induction of amyloidosis but before administration of ^125I-SAP. They were all weighed again before being killed at the end of the experiment. All mice were bled four times: (1) immediately before groups […] were started on CPHPC; (2) the day before injection of IgG preparations in groups […]; (3) 14 days after the IgG injections; (4) at the time of killing. Sections of spleen and liver of all animals stained with Congo red were independently examined by three different expert observers blinded to the treatment each mouse had received and scored for the amount of amyloid present as previously reported. The scores of 10^0-10^4 represent an approximately log base 10 ranking scale from 10^0, corresponding to one or two tiny specks of amyloidosis among several sections of a particular organ, to 10^4 corresponding to abundant widespread deposits comprising about 10,000 times more amyloid^13. […]

The target of data set [2] is T1, SAP. As to the kind of experiment: CPHPC administration in human systemic amyloidosis patients. Also noted: Human SAP is a constitutive protein in the plasma; from tissue; host or cells: plasma/serum and amyloid deposits of human patients. Particulars: after months of continuous CPHPC administration. Format: in vivo.
Data set [3] deals with T1, SAP. Nature of the data set: Treatment of a patient with systemic amyloidosis using CPHPC and anti-SAP antibody (Example 2). The class given is in vivo. Set-up: Human SAP is a constitutive protein in the plasma; from tissue; host or cells: plasma/serum and amyloid deposits of human patients. Conditions: day after bolus intravenous 100 mg CPHPC. As for the experimental part:
A patient suffering from systemic amyloidosis is diagnosed by clinical examination and routine investigations leading to suspicion of amyloidosis, followed by specific confirmation by expert histochemical examination of biopsies of affected tissues. Radiolabelled SAP scintigraphy is performed in the UK NHS National Amyloidosis Centre at the Centre for Amyloidosis and Acute Phase Proteins in the Department of Medicine of University College London at the Royal Free Hospital. […] Routine clinical investigations of organ function establish the extent and severity of tissue and organ damage caused by the amyloid deposits, as well as the presence and severity of any underlying primary disease which may have led to amyloid deposition.
The patient is treated with the SAP depleting drug, CPHPC, administered by bolus intravenous injection of a dose of 100 mg. The following day a blood sample is taken. This confirms by specific immunoassay that the SAP concentration in the serum has been reduced by 90%. An intravenous infusion of anti-SAP antibody is then commenced and over a period of several hours a dose of 1000 mg of antibody is administered sufficient to bind to SAP within the amyloid deposits throughout the body. CPHPC is administered parenterally twice daily for the next two weeks, to ensure that plasma SAP values remain suppressed. […]

Data set [4] addresses T1, SAP. Set-up: Human SAP is a constitutive protein in the plasma; from tissue; host or cells: plasma/serum and amyloid deposits of human patients. Particulars: in vivo; cited from earlier work.
For data set [5] the following is noted: cited from earlier work.
Data set [6] concerns the target human serum amyloid P component (SAP), isolated pure, native (human) (UniProt P02743). Nature of the data set: Biacore (SPR), isolated pure SAP alone immobilised on the chip. In general terms: In SPR one partner is held on a chip, and binding of the other changes the refractive index at the surface.
Data set [7] has the same target. Nature of the data set: IRMA, SAP non-covalently immobilised, antibody at 1 ug/ml, detection anti-mouse IgG2a.
Data set [8] has the same target. Nature of the data set: IRMA, SAP non-covalently immobilised, antibody at 10 ug/ml, detection anti-mouse IgG2a.
Data set [9] shares this target. As to the kind of experiment: IRMA, SAP non-covalently immobilised, antibody at 0.1 ug/ml, detection anti-mouse IgG2a.
Data set [10] shares this target. Nature of the data set: IRMA, SAP non-covalently immobilised, antibody at 100 ug/ml, detection anti-mouse IgG2a.
For data set [11] the target is unchanged. Nature of the data set: IRMA, SAP non-covalently immobilised, antibody at 0.01 ug/ml, detection anti-mouse IgG2a.
Data set [12] has the same target. Nature of the data set: IRMA, SAP non-covalently immobilised, antibody at 0.001 ug/ml, detection anti-mouse IgG2a.
Data set [13] shares this target. Nature of the data set: IRMA, SAP alone covalently immobilised, in EDTA, radiolabelled sheep anti-mouse IgG, mean n=3.
Data set [14] shares this target. Nature of the data set: IRMA, SAP non-covalently immobilised, antibody at 1 ug/ml, detection polyvalent anti-mouse IgG.
Data set [15] has the same target. Nature of the data set: IRMA, SAP non-covalently immobilised, antibody at 10 ug/ml, detection polyvalent anti-mouse IgG.
Data set [16] shares this target. As to the kind of experiment: IRMA, SAP alone covalently immobilised, in calcium, radiolabelled sheep anti-mouse IgG, mean n=3.
Data set [17] shares this target. Nature of the data set: IRMA, SAP non-covalently immobilised, antibody at 0.1 ug/ml, detection polyvalent anti-mouse IgG.
For data set [18] the target is unchanged. Nature of the data set: IRMA, SAP non-covalently immobilised, antibody at 100 ug/ml, detection polyvalent anti-mouse IgG.
Data set [19] shares this target. Nature of the data set: IRMA, SAP non-covalently immobilised, antibody at 0.01 ug/ml, detection polyvalent anti-mouse IgG.
For data set [20] the target is unchanged. As to the kind of experiment: IRMA, SAP non-covalently immobilised, antibody at 0.001 ug/ml, detection polyvalent anti-mouse IgG.
Data set [21] deals with human SAP complexed with CPHPC and covalently cross-linked with BS3 (human) (UniProt P02743). As to the kind of experiment: IRMA, SAP-CPHPC complex covalently immobilised, in EDTA, radiolabelled sheep anti-mouse IgG, mean n=3.
human SAP complexed with CPHPC and covalently cross-linked with BS3 (human), sequence (P02743 20-223, one chain of several): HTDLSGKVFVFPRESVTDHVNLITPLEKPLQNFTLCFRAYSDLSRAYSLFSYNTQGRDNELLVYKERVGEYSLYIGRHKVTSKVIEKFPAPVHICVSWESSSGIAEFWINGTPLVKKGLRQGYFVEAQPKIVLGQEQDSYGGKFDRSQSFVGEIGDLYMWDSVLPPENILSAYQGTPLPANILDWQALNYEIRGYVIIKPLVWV
For data set [22] the target is unchanged. As to the kind of experiment: IRMA, SAP-CPHPC complex covalently immobilised, in calcium, radiolabelled sheep anti-mouse IgG, mean n=3.
Data set [23] has as its target human serum amyloid P component (SAP), isolated pure, native (human) (UniProt P02743). As to the kind of experiment: IRMA, SAP alone captured on immobilised sheep polyclonal anti-human SAP, in calcium, radiolabelled sheep anti-mouse IgG, mean n=3.
In data set [24] the target is human SAP complexed with CPHPC and covalently cross-linked with BS3 (human) (UniProt P02743). As to the kind of experiment: IRMA, SAP-CPHPC complex captured on immobilised sheep polyclonal anti-human SAP, in calcium, radiolabelled sheep anti-mouse IgG, mean n=3.

T1 sequence (P02743 20-223): as the sequence (P02743 20-223, one chain of several) above
human serum amyloid P component (SAP), isolated pure, native (human), sequence (P02743 20-223): as the sequence (P02743 20-223, one chain of several) above

In the case of `O=C(O)[C@H]1CCCN1C(=O)CCCCC(=O)N1CCC[C@@H]1C(=O)O` [CPHPC, (R)-1-[6-[(R)-2-Carboxy-pyrrolidin-1-yl]-6-oxo-hexanoyl]pyrrolidine-2-carboxylic acid], the entries for the “Human SAP concentrations in serum [mean (SD)]” value at SAP [1] (females) and on SAP [1] (males) were 4.0 (1.4) mg/l and 2.9 (1.3) mg/l, respectively. The “Human SAP concentrations in serum” value on SAP [1] (females, post antibody day 14) is listed as “trace”; on SAP [1] (females, post antibody day 28) it was “trace”; on SAP [1] (males, post antibody day 14), “trace”; at SAP [1] (males, post antibody day 28), “trace”. Besides, the “Greatest depletion of SAP from amyloid deposits” value on SAP [2] is recorded as “about 90%”. The “Reduction of SAP concentration in the serum” value at SAP [3] came to 90%. The “Tolerability / adverse effects” value on SAP [4] was “extremely well tolerated”.

Regarding “human SAP: isolated pure human SAP injected to load amyloid deposits”, the “Half time of persistence in amyloid deposits” value in data set [5] (amyloidotic mice) was 3 to 4 days. For the same compound, the “Half life of clearance from the circulation” value in data set [5] (human SAP not bound to amyloid) was 3 to 4 h.

For orientation: koff means the first-order rate constant of dissociation. A low value points to slow dissociation. What is called kon is the rate constant with which the complex forms. In data set [6], “mouse monoclonal anti-human SAP antibody SAP-5” yielded a koff of 6e-05 s⁻¹. Besides, in [6], the kon worked out at 20000 M⁻¹ s⁻¹. The Activity bound (d.p.m.) in data set [7] turned out to be 1650 d.p.m; in [8] it was 1980 d.p.m; in [9], 589 d.p.m; in data set [10] it was 2200 d.p.m; in [11], 222 d.p.m; in [12], 94 d.p.m. The Activity bound (d.p.m.) worked out at 4050 d.p.m in data set [13]; 12100 d.p.m in data set [14]; 15400 d.p.m in data set [15]; 5580 d.p.m in data set [16]; 4560 d.p.m in data set [17]; 16200 d.p.m in data set [18]. Moreover, the Activity bound (d.p.m.) is 902 d.p.m in data set [19]; 195 d.p.m in [20]; 5140 d.p.m in data set [21]; 6160 d.p.m in data set [22]; 9310 d.p.m in data set [23]; 7120 d.p.m in data set [24].
